Measurements as given in patent publication US6143507A, “High throughput compatible assay for receptor-TRAF interactions” (Boehringer Ingelheim Pharmaceuticals, Inc., priority 1998, dated 2000).
Residues, ends and D or L forms follow the SMILES beside them.

T1: TRAF2(NC)-CA21 (human)
T1 sequence: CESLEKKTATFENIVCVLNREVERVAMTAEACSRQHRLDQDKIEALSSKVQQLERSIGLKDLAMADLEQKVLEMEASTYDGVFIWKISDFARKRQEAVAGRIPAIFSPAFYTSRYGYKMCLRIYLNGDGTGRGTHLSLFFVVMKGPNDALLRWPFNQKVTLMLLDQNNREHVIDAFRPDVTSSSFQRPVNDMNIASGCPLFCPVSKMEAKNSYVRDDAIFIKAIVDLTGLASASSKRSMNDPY

T2: CD40c-TRAF2 interaction (Homo sapiens, UniProt Q12933)
T2 construct: 1 and 2, respectively; made in house; host or cells: TRAF2(NC)-CA21: Spodoptera frugiperda Sf21 cells (baculovirus); CD40c: Escherichia coli BL21 (DE3)
T2 sequence (Q12933 with tags, fused parts or gaps): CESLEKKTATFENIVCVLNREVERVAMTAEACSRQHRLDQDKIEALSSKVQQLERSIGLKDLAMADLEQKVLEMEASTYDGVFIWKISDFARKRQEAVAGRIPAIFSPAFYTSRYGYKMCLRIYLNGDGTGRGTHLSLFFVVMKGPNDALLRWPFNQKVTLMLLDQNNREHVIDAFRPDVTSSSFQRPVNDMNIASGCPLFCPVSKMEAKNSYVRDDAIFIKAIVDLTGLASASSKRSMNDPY


Assays:
[1] = molecular target: T1, TRAF2(NC)-CA21 (human); assay: flashplate competition assay, inhibition of TRAF2(NC)-CA21 binding to biotin-CD40c
[2] = molecular target: T2, CD40c-TRAF2 interaction; assay: Flashplate assay of CD40c-TRAF2 interaction (biotin-CD40c, TRAF2(NC)-CA21, 125I-CA21 Fab); type: binding; conditions: 0.44 μg/ml biotin-CD40c; for IC50: 5 μg/ml TRAF2(NC)-CA21, peptide preincubated with TRAF2(NC)-CA21, read-out: IC50 for inhibition of CD40c-TRAF2 interaction
Protocol: FIG. 2. Peptide antagonists of CD40c-TRAF2 interaction. Streptavidin flashplates were coated with 0.44 μg/ml biotin-CD40c. Stock solutions of peptides were prepared at 1 mg/ml in assay buffer and the pH verified. All peptides were assayed by preincubating with TRAF2(NC)-CA21 at a final peptide concentration of 0.5 mg/ml. Peptides were serially diluted 1.5-fold prior to addition of the TRAF2(NC)-CA21 (5 μg/ml final). Results are means of duplicate points except for the no inhibitor wells (none, closed circles) that are means i standard deviation of 11 replicates. A) Peptides AcPVQET-NH2 (closed squares), AcNTAAPVQET-NH2 (closed triangles), AcNTAAPVQETLH-NH2 (open triangles), CD30.B (AcDVMLSVEEEGKE-NH2, open circles); B) Peptides AcIQET-NH2 (closed squares), AcPIQET-NH2 (closed triangles), AcQEPQEINF-NH2 (open triangles), CD40c (open circles). The maximum signal in B) is less due to a difference in the decay of the ^125 I-Fab.
Significant signal was detectable as low as 0.054 μg/ml biotin-CD40c (FIG. 1). Standard conditions for the assay were selected to be 0.44 μg/ml CD40c and 5 μg/ml TRAF2(NC)-CA21. These conditions provided a signal/noise of eight to ten and a good dynamic range for the detection of inhibitors or enhancers. […] As noted by the manufacturer of the plates, low concentrations of detergents were strong inhibitors of the assay because they removed the streptavidin from the wells. […] The PVQET sequence in the CD40 cytoplasmic domain is essential for signaling through CD40 and is thought to be a core TRAF2 binding sequence. Devergne, O., et al (1996) Mol. Cell. Biol. 16, 7098-7108; Innui, W., et al (1990) Eur. J Immunol. 20, 1747-1753. Therefore several peptides around the PVQET sequence were tested for the ability to compete the CD40c-TRAF2 interaction (FIG. 2A). […] FIG. 2A.
Biotin-CD40c (0.5 μg/ml) was bound to streptavidin-coated 96-well scintillant-embedded plates (Flashplates, New England Nuclear, catalog #15112) overnight at 4° C. in D-PBS, 0.1 mM DTT, 0.01% BSA (100 μl/well). Plates were blocked for 2 hr at room temperature by the addition of Dulbecco's-PBS, 0.1 mM DTT, 1.0% BSA (100 μl/well). In a separate 96-well round bottom polypropylene plate peptide inhibitors were diluted in 40 mM HEPES, pH 7.5, 0.1 M NaCl, 1.0 mM MgCl2, 0.1 mM DTT, 0.01% BSA, and TRAF2(NC)-CA21 was added at a final concentration of 5 μg/ml. Plates were preincubated for 30 min at room temperature. After washing the biotin-CD40c-coated flashplate three times with D-PBS, 0.1 mM DTT, inhibitor-TRAF2(NC)-CA21 mixtures were transferred from the preincubation plate to the washed plate (100 μl/well). Alternatively, after washing the biotin-CD40c-coated flashplates, inhibitors were added directly without TRAF preincubation in a final volume of 50 μl 40 mM HEPES, pH 7.5, 0.1 M NaCl, 1.0 mM MgCl2, 0.1 mM DTT, 0.01% BSA, and 50 μl/well TRAF2(NC)-CA21 (10 μg/ml stock to make a final concentration of 5 μg/ml) was added. Flashplates were incubated for 1 hr at room temperature, washed three times with 40 MM HEPES, pH 7.5, 0.1 M NaCl, 1.0 mM MgCl2, 0.1 mM DTT, and 100 μl/well of [^125 I]CA21 Fab fragment at an adjusted specific activity of 0.08 μCi/well added in […] HEPES, pH […] 7.5, 0.1 M NaCl, 1.0 mM MgCl2, 0.1 mM DTT, 0.1% BSA. After a 1 hr incubation at room temperature plates were sealed and counted in a TopCount scintillation counter (Packard; one minute/well, 2 minute plate delay).

[3] = tested on: GST-CD40-TRAF interaction; conditions: cited from earlier work

Molecule	IC50 [1] [µM]	IC50 [2] [µM]	other results
CD40c (nonbiotinylated CD40c polypeptide) (from UniProt P25942) (receptor)	50		
Ac-PIQET-NH2 [AcPIQET-NH2]	70		
Ac-PVQET-NH2 [AcPVQET-NH2]	90		
CD40c: 62 amino acid human CD40 cytoplasmic domain (amino acids 216-277) expressed in E. coli (protein, also: biotinylated via D-biotinoyl-aminocaproic acid NHS ester, one or two biotin per molecule, sites not given here, 62 amino acid human CD40 cytoplasmic domain (amino acids 216-277) expressed in E. coli) KKVAKKPTNKAPHPKQEPQEINFPDDLPGSNTAAPVQETLHGCQPVTQEDGKESRISVQERQ		~50	ability to compete for GST-CD40-TRAF interaction [3]: weak ability to compete
Ac-IQET-NH2 [AcIQET-NH2]	140		fold decrease of inhibitory activity against PIQET [1]: 2 fold

Now from value to molecule, other results behind:

IC50 [1] [µM]	IC50 [2] [µM]	Molecule	other results
	~140	CC[C@H](C)[C@H](NC(C)=O)C(=O)N[C@@H](CCC(N)=O)C(=O)N[C@@H](CCC(=O)O)C(=O)N[C@H](C(N)=O)[C@@H](C)O [IQET, AcIQET-NH2] (Ac-IQET-NH2)	
	~70	Ac-PIQET-NH2 [PIQET, AcPIQET-NH2]	
	~90	Ac-PVQET-NH2 [PVQET, AcPVQET-NH2]	ability to inhibit (compete) CD40c-TRAF2 interaction, in words ([2]; 5 μg/ml TRAF2(NC)-CA21, peptides up to 0.5 mg/ml): most potent
